Source: paper PMC4108388, “The Structure of RdDddP from Roseobacter denitrificans Reveals That DMSP Lyases in the DddP-Family Are Metalloenzymes” (PLoS ONE, 2014)

Target: the molecule itself
Test: crystal structure; RdDddP crystallised in 4-4.5 M sodium chloride, 0.1 M Bis-Tris pH 6.5; space group P6(3)22, one molecule per asymmetric unit, dimer formed with a chain related by crystallographic symmetry; 2.15 Å native dataset

B1: putative DddP DMSP lyase from Roseobacter denitrificans Och 114 (enzyme, UniProt Q166H0 1-447, looked up)
chain: MNRHFNATRKIDPSRGATLGDGSPNDMNRVEIGPTQLAFAEWHTARLDLPDLAAMRRFRHRRLTDHVVARGYAGLLMFDPLNIRYATDSTNMQLWNTHNPFRATLLCADGYMVMWDYKNSPFLSEFNPLVREQRAGADLFYFDRGDKVDVAADVFANEVRILLRDHAPGLRRLAVDKVMLHGLRALQAQGFEIMDGEEVTEKARSVKGPDEIRAMRCASHACEVAVRKMEDFARSKVGDGVTCENDIWAILHSENVRRGGEWIETRLLASGPRSNPWFQECGPRVCQRNEIISFDTDLVGAYGICTDISRSWWIGDQKPRADMIYAMQHGVEHIRTNMEMLKPGVMIPELSANTHVLDAKFQKQKYGCLMHGVGLCDEWPLVAYPDHAVAGAYDYPLEPGMTLCVEALISEEGGDFSIKLEDQVLITEDGYENLTKYPFDPALMGVE
notes: putative DMSP lyase DddP (RdDddP), Roseobacter denitrificans Och 114, YP_682809; 453 residues, 51 kDa; the gene was amplified with printed primers that run from the ATG start codon to the stop codon; residues 10-444 are described in the structure; Homodimer formed by crystallographic symmetry; A few vector residues probably remain at the N-terminus after thrombin cleavage (NheI cloning in pET28); …
Question: How did the “stoichiometry N” value turn out when B1 was run?
Answer: 2
